Reference: patent US20240261333A1, “NOVEL TARGETS FOR ENHANCING ANTI-TUMOR IMMUNITY” (THE BROAD INSTITUTE, INC., priority 2021, published 2024)

Tests used:
TOR1AIP2 (human) = TOR1AIP2 (human) (UniProt Q8NFQ8); assay: co-IP with anti-FLAG, mass spectrometry; lysate of cells with C-FLAG B3GNT2
CCT2 (human) = CCT2 (human) (UniProt P78371); assay: as above
GAPDH (human) = GAPDH (human) (UniProt P04406); assay: as above
PJA2 (human) = PJA2 (human) (UniProt O43164); assay: as above
EIF4A1 (human) = EIF4A1 (human) (UniProt P60842); assay: as above
MAGT1 (human) = MAGT1 (human) (UniProt Q9H0U3); assay: as above
MYO1C (human) = MYO1C (human) (UniProt O00159); assay: as above
MYO1C (human), sequence (O00159 other isoform, or with tags, fused parts or gaps limits assumed): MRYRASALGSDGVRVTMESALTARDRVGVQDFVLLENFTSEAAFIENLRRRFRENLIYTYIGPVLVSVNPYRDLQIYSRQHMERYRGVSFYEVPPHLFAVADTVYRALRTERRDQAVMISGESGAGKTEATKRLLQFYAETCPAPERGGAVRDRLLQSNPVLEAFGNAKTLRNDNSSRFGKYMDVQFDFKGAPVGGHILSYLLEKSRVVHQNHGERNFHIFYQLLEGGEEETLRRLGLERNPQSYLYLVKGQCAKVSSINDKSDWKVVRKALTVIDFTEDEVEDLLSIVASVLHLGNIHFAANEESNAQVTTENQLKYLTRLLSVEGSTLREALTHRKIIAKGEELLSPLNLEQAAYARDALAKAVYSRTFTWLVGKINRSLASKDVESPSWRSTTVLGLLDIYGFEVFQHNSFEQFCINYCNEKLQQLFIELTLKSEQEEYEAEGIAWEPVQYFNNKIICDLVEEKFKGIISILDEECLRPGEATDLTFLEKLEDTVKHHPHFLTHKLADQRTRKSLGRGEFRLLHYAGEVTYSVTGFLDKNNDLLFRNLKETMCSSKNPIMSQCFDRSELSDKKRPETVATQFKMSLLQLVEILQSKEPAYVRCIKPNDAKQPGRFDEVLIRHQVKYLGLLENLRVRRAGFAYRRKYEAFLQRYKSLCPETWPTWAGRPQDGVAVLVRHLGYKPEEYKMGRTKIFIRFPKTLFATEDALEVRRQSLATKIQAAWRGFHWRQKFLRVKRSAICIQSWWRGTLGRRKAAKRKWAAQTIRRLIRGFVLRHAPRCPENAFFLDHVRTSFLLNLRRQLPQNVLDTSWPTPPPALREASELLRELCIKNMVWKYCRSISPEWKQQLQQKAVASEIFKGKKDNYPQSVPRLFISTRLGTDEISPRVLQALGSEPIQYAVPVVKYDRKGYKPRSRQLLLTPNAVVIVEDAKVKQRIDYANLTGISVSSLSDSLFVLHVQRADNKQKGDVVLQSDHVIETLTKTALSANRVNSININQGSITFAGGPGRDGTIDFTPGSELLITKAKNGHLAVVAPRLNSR

CTHRC1 (human) = CTHRC1 (human) (UniProt Q96CG8); assay: as above
UGGT1 (human) = UGGT1 (human) (UniProt Q9NYU2); assay: as above
ILF3 (human) = ILF3 (human) (UniProt Q12906); assay: as above
SLC27A4 (human) = SLC27A4 (human) (UniProt Q6P1M0); assay: as above
NPM1 (human) = NPM1 (human) (UniProt P06748); assay: as above
EPRS (human) = EPRS (human) (UniProt P07814); assay: as above
HSPD1 (human) = HSPD1 (human) (UniProt P10809); assay: as above
SDF4 (human) = SDF4 (human) (UniProt Q9BRK5); assay: as above
IPO13 (human) = IPO13 (human) (UniProt O94829); assay: as above
SLC25A5 (human) = SLC25A5 (human) (UniProt P05141); assay: as above
ZC3HAV1 (human) = ZC3HAV1 (human) (UniProt Q7Z2W4); assay: as above
SEL1L (human) = SEL1L (human) (UniProt Q9UBV2); assay: as above
PIGR (human) = PIGR (human) (UniProt P01833); assay: as above
CCT7 (human) = CCT7 (human) (UniProt Q99832); assay: as above
PGK1 = PGK1 (UniProt P00558); assay: co-IP, anti-FLAG, lysate of C-FLAG B3GNT2 cells, mass spectrometry
MAP1B = MAP1B (UniProt P46821); assay: as above
HSPA5 = HSPA5 (UniProt P11021); assay: as above
RPL18A = RPL18A (UniProt Q02543); assay: as above
CNP = CNP (UniProt P09543); assay: as above
TNC = TNC (UniProt P24821); assay: as above
ARPC2 = ARPC2 (UniProt O15144); assay: as above
SLC25A3 = SLC25A3 (UniProt Q00325); assay: as above
SLC25A3, sequence (Q00325 50-362 limits assumed): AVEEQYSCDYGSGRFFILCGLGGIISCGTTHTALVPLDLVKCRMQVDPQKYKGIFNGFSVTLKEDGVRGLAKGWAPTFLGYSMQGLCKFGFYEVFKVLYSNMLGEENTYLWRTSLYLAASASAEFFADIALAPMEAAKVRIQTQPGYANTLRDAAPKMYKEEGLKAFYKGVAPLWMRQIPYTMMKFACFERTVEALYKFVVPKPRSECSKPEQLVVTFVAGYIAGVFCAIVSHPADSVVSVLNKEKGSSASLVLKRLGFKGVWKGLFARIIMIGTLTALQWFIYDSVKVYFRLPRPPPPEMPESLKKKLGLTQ

SMN1 = SMN1 (UniProt Q16637); assay: as above
LRP2 = LRP2 (UniProt P98164); assay: as above
HSPH1 = HSPH1 (UniProt Q92598); assay: as above
HSPH1, sequence (Q92598 other isoform, or with tags, fused parts or gaps limits assumed): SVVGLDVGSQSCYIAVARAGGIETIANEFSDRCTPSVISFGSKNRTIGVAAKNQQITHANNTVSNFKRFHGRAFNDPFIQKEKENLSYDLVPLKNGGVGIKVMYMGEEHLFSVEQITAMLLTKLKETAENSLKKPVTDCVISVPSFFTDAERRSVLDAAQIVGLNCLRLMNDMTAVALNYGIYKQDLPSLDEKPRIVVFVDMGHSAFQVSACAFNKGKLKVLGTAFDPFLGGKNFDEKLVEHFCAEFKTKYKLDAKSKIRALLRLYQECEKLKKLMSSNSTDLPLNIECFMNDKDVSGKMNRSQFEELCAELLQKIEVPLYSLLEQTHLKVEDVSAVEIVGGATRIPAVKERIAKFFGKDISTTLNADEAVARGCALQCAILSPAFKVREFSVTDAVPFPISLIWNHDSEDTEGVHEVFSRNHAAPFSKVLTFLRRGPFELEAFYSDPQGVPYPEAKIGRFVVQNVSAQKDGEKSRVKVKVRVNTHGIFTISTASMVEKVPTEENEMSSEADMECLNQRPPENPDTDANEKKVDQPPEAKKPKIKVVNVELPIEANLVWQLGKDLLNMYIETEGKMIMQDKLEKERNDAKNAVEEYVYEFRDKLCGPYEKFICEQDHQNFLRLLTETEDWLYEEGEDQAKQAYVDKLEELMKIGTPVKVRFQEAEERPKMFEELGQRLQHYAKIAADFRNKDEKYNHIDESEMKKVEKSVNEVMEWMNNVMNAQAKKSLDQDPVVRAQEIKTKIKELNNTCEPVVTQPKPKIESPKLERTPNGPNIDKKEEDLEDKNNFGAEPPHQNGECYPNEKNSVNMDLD

CALM2 = CALM2 (UniProt P0DP24); assay: as above
NCL = NCL (UniProt P19338); assay: as above
NCL, sequence (P19338 2-710 limits assumed): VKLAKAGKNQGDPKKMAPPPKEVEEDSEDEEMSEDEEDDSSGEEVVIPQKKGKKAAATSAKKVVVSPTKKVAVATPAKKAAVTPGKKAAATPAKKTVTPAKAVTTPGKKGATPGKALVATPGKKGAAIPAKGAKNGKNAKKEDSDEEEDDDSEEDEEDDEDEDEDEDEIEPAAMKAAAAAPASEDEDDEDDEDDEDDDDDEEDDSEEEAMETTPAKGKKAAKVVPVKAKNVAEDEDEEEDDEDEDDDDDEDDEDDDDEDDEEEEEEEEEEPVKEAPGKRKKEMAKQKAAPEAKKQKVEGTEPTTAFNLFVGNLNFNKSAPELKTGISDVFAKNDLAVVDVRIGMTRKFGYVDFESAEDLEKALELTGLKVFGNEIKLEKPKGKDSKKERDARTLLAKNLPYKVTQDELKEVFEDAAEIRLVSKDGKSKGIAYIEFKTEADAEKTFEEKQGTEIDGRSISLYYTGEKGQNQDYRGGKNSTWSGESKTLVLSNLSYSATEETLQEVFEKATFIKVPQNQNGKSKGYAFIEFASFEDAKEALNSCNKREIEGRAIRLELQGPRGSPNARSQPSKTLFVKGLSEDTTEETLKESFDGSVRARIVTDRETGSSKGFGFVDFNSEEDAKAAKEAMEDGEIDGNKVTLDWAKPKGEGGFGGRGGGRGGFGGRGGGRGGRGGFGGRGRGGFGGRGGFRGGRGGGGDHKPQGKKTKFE

MYO1D = MYO1D (UniProt O94832); assay: as above
LRPPRC = LRPPRC (UniProt P42704); assay: as above
CEP170 = CEP170 (UniProt Q5SW79); assay: as above
LAMB1 = LAMB1 (UniProt P07942); assay: as above
LAMB1, sequence (P07942 22-1786 limits assumed): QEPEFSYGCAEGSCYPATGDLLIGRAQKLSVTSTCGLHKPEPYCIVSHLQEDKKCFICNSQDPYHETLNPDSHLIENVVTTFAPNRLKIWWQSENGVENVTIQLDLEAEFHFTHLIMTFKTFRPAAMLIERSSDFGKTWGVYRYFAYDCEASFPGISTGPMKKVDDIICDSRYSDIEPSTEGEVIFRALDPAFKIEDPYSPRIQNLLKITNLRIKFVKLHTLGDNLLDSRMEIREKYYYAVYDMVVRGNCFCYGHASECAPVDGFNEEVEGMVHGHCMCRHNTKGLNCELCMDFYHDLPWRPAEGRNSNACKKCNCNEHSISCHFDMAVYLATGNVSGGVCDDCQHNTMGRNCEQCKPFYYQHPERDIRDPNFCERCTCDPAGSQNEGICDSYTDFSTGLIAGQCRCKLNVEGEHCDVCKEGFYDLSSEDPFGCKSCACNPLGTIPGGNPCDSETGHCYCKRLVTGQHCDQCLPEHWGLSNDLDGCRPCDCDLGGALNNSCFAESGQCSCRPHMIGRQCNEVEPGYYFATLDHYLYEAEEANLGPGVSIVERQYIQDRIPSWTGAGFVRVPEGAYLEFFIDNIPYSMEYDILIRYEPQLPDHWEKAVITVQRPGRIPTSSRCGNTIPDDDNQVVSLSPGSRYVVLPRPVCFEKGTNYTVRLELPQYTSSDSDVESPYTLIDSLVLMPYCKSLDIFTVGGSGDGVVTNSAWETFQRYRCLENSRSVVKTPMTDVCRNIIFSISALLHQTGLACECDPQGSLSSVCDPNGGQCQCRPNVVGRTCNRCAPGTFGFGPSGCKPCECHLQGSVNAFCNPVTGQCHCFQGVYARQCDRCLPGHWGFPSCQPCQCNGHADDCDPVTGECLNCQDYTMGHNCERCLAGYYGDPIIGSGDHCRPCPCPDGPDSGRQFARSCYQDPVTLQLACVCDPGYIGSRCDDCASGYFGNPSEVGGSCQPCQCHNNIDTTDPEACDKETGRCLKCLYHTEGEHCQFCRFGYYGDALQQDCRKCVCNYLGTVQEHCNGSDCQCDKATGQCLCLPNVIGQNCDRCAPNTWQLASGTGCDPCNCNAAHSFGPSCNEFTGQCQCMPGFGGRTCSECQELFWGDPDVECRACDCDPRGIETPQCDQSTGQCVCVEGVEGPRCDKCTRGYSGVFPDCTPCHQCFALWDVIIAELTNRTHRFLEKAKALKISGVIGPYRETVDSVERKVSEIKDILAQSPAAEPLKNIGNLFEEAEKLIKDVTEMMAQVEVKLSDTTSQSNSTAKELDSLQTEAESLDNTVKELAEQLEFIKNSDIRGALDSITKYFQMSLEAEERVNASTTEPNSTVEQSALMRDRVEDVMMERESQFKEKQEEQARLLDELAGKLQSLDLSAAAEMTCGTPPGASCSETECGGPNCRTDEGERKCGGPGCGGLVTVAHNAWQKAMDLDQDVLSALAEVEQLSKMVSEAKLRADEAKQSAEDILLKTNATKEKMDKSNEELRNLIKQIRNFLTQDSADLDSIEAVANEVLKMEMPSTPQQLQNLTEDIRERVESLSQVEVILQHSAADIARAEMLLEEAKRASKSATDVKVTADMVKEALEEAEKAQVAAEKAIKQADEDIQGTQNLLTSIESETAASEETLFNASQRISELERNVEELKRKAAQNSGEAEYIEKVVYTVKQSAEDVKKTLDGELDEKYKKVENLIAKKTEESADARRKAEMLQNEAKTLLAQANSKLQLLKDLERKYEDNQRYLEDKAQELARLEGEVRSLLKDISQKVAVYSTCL

GAPDH (human), sequence (P04406 2-335 limits assumed): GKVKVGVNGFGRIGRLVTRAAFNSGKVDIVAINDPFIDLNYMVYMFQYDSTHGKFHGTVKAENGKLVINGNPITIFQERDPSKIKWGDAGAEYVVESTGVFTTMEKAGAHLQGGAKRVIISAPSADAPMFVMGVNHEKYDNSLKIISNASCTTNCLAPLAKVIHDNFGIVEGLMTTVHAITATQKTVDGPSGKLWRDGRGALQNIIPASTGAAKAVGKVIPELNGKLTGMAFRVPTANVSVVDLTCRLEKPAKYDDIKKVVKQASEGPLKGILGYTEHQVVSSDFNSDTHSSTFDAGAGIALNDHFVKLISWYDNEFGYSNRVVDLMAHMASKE

Substance: C-terminal FLAG tagged B3GNT2 (from UniProt Q9NY97 1-397) (enzyme)
- co-IP mass spectrometry count (TOR1AIP2 (human)): 2
- co-IP mass spectrometry count (CCT2 (human)): 2
- co-IP mass spectrometry count (GAPDH (human)): 16
- co-IP mass spectrometry count (PJA2 (human)): 2
- co-IP mass spectrometry count (EIF4A1 (human)): 6
- co-IP mass spectrometry count (MAGT1 (human)): 2
- co-IP mass spectrometry count (MYO1C (human)): 3
- co-IP mass spectrometry count (CTHRC1 (human)): 2
- co-IP mass spectrometry count (UGGT1 (human)): 5
- co-IP mass spectrometry count (ILF3 (human)): 5
- co-IP mass spectrometry count (SLC27A4 (human)): 2
- co-IP mass spectrometry count (NPM1 (human)): 8
- co-IP mass spectrometry count (EPRS (human)): 4
- co-IP mass spectrometry count (HSPD1 (human)): 6
- co-IP mass spectrometry count (SDF4 (human)): 7
- co-IP mass spectrometry count (IPO13 (human)): 2
- co-IP mass spectrometry count (SLC25A5 (human)): 30
- co-IP mass spectrometry count (ZC3HAV1 (human)): 4
- co-IP mass spectrometry count (SEL1L (human)): 5
- co-IP mass spectrometry count (PIGR (human)): 5
- co-IP mass spectrometry count (CCT7 (human)): 2
- co-IP/MS count (PGK1): 2
- co-IP/MS count (MAP1B): 2
- co-IP/MS count (HSPA5): 130
- co-IP/MS count (RPL18A): 12
- co-IP/MS count (CNP): 7
- co-IP/MS count (TNC): 10
- co-IP/MS count (ARPC2): 2
- co-IP/MS count (SLC25A3): 9
- co-IP/MS count (SMN1): 14
- co-IP/MS count (LRP2): 2
- co-IP/MS count (HSPH1): 7
- co-IP/MS count (CALM2): 2
- co-IP/MS count (NCL): 11
- co-IP/MS count (MYO1D): 2
- co-IP/MS count (LRPPRC): 9
- co-IP/MS count (CEP170): 2
- co-IP/MS count (LAMB1): 2
